Experiment [1] has as its target RSV prefusion F (preF), subtype A (respiratory syncytial virus, subtype A, UniProt P03420 26-513). The experiment can be described thus: BLI, IgG.
In experiment [2] the target is T1, RSV postfusion F (postF), subtype A (respiratory syncytial virus, subtype A, UniProt P03420 26-513).
T1 construct: also called F ΔFP; Postfusion subtype A
The experiment can be described thus: BLI, IgG. (In general: BLI is a label-free optical method that tracks binding on a fibre tip over time.)

The target of experiment [3] is RSV prefusion F (preF), subtype B (respiratory syncytial virus, subtype B). Kind of experiment: BLI, IgG.
In experiment [4] the target is T2, RSV prefusion F (preF), subtype B (respiratory syncytial virus subtype B).
T2 construct: also called Prefusion subtype B
Kind of experiment: BLI, IgG.

For experiment [5], the target named is T3, RSV postfusion F (postF), subtype A (respiratory syncytial virus subtype A, UniProt P03420 26-513).
T3 construct: also called Postfusion subtype A; F deltaFP
The experiment can be described thus: BLI.

The results in this text go back to patent publication US20260258115A1 (MAPP BIOPHARMACEUTICAL, published 2026).

The Kd is the free concentration of one partner at which half of the binding sites on the other are occupied at equilibrium, for simple one-to-one binding. A higher Kd goes with lower affinity.

Positions count from the first letter of the chain named.

B1: ADI-14395 (antibody, V domains shown)
VH: EVQLVESGGGVVQPGRSLRLSCAASGFTFSSYAMHWVRQAPGKGLEWVAVISYDGSNKYYADSVKGRFTISRDNSKNTLYLQMNSLRAEDTAVYYCARDDTYYYDSSGYSAPFDYWGQGTLVTVSS
VL: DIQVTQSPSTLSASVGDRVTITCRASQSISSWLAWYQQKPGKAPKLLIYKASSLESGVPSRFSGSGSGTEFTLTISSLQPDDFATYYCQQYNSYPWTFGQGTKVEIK
notes: also called Ab 62
For B1, the Kd in experiment [1] is 24.9 nM. The binding result in experiment [2] is “no binding”.

B2: ADI-14397 (antibody, V domains shown)
VH: B1 VH with S107N
VL: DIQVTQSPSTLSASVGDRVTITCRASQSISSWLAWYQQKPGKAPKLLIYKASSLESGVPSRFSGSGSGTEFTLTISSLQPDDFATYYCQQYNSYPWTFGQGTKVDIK
notes: also called Ab 64
For B2, the Kd in experiment [1] turned out to be 28.5 nM. For the same molecule, the binding result in experiment [2] was “no binding”.

B3: ADI-20965 (antibody, V domains shown)
VH: QVQLVQSGAEVKKPGASVKVSCKASGYNFTNYGISWVRQAPGQGLEWMGWISTSNGNTHYAQKSQGRITLTTDTSTNTAYMEVRSLRSDDTAVYYCAREGPESTYDWYHFDSWGQGTLVTVSS
VL: QSVVTQPPSVSVAPGQTAKITCGGNNIGSKTVHWYQLKAGQAPVLVVYDDSDRPSGIPERFSGSNSGNTATLTIRRVEAGDEADYFCQVWESASDHWVFGGGTKLTVL
Consider B3, for which the dissociation constant Kd is 0.121 nM in experiment [1] and 0.533 nM in experiment [3].

B4: ADI-21035 (antibody, V domains shown)
VH: EVQLVESGHEVKKPGASVKVSCKASGYTFPSYGISWVRQAPGQGLEWMGWIVPYNGNTKYAQRFQGRITMTTDSPTSTASMELRGLRSDDTAVYYCARVFGDGYSYGYEYWGQGTLVTVSS
VL: DIVLTQSPSTLSASVGDRVTITCRASQSISIWLAWYQQKPGKAPKLLIYKTSELVSGVPSRFSGSGSGTEFTLTISGLQPDDFATYYCQQGNSYSHTFGQGTKVEIK
The molecule B4 showed a dissociation constant (Kd) in experiment [1] of 10.3 nM.

B5: ADI-14575 (antibody, V domains shown)
VH: QVQLVQSGAEVKKPGSSVKVSCKASGGTFSSYTISWVRQAPGQGLEWMGRIIPILGIANYAQKFQGRVTITADKSTSTAYMELSSLRSEDTAVYYCARPSSSSFAFDYWGQGTLVTVSS
VL: QSVLTQPASVSGSPGQSITISCTGTSSDVGGYNYVSWYQQHPGKAPKLMIYDVSNRPSGVSNRFSGSKSGNTASLTISGLQAEDEADYYCSSYTSSSTPVVFGGGTKVTVL
With B5, binding in experiment [1] was characterised by a dissociation constant (Kd) of 11.2 nM.

B6: ADI-14571 (antibody, V domains shown)
VH: QVQLVQSGAEVKKPGSSVKVSCKASGGTFSTYTITWVRQAPGQGLEWMGRIVPIFGVVNNAQKFLGRLTITADKSTSTAYMELSSLRSEDTAVYYCARIPCSGNCQDYYYGMDVWGQGTTVTVSS
VL: DIQLTQSPSFLSASVGDRVTITCRASQGISSYLVWYQQKPGKAPKLLIYAASTLQSGVPSRFSGSGSGTEFTLTISSLQPEDFATYYCQQLNNYPPTFGPGTKVDIK
For the molecule B6, the Kd in experiment [1] is 2.91 nM. Further, in experiment [2], the binding result was “no binding”.

B7: ADI-25565 (antibody, V domains shown)
VH: EVQLVESGGGLVKPGGSLRLSCAASGFTFSSYSMNWVRQAPGKGLEWVSSISSSSSYIYYADSVKGRFTISRDNAKNSLYLQMNSLRAEDTAVYYCARIRFDYGSGSYAFDIWGQGTMVTVSS
VL: QPVLTQPPSVSGAPGQRVTISCTGSSSNIGAGYDVHWYQQLPGTAPKLLIYGNSNRPSGVPDRFSGSKSGTSASLAITGLQAEDEADYYCQSYDSSLSGSVFGGGTKLTVL
notes: full-length IgG
B7: the dissociation constant Kd in experiment [4] is 35.7 nM. Further, the binding result in experiment [5] is given as “no binding”.

B8: ADI-14579 (antibody, V domains shown)
VH: QVQLVQSGAEVKKPGESLKISCKVSGYSFTSYWIGWVRQMPGKGLEWMGIIYPGDSDTRYSPSFQGQVTISADKSITTAYLQWSSLKASDTAMYYCARPAHSSSWYGAFDLWGQGTTVTVSS
VL: DIQMTQSPSSLSASVGDRVTITCRASQGISNYLAWYQQKPGKVPKLLIYAASTLQSGVPSRFSGSGSGTDFTLTISSLQPEDVATYYCQKYNSAPLTFGGGTKVEIK
With B8, the figures for the Kd in experiment [1] and in experiment [3] were 7.54 nM and 3.73 nM, respectively.

B9: ADI-21006 (antibody, V domains shown)
VH: QVTLKESGPTLVKPTQTLTLTCTFSGFSLSISGVGVGWIRQPPGKALEWLAVMYWDDDKRYSPSLKTRLTITKDTSKNQVVLTMTNMAPVDTAIYYCAHLWFGEAAFDPWGQGTLVTVSS
VL: EIVLTQSPLSLPVTLRQTASISCRSGQSLLYSDGNTYLNWFQQRPGQSPRRLISIVSKRDSGVPDRFSGSGSGTDFTLKISRVEAEDVGVYYCMQGTHWPYTFGQGTKVEIK
For the molecule B9, the dissociation constant Kd in experiment [1] stood at 10.4 nM. Moreover, the binding result in experiment [2] is listed as “no binding”.

B10: ADI-14572 (antibody, V domains shown)
VH: QVQLVQSGGGLVKPGGSLRLSCAASGFTFSNAWISWVRQAPGKGLEWVGRIKSATDGGTTDYAAPVKGRFTISRDDSKNTLYLQMDSLKTEDTAVYYCTTSYPYFDWLPFSVDYWGQGTLVTVSS
VL: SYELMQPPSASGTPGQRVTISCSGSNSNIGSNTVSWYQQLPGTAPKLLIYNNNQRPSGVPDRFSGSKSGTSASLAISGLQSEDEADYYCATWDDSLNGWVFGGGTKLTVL
For B10, in experiment [1], the binding result is “no binding”. The molecule further registered a dissociation constant (Kd) in experiment [2] of 17 nM.

B11: ADI-21060 (antibody, V domains shown)
VH: EVQLVESGGGLVKPGGSLRLSCEASGFRLSDYYMTWIRQAPGKGLECISYISGGSTFKSYSDSVKGRFTISRDNTNLYLQMNSLRVEDTAVYYCARAPYLIYYMDVWGKGTTVTVSS
VL: QPVLTQPPSVSGAPGQRVSISCTGSNSNIGAGYDVHWYQQLPGTPPKLLIYDNNNRPSGVPDRFSGSKSGTSASLAITGLQAEDEADYYCQSYDNRLSGSQVLFGGGTKVTVL
Regarding B11, the values for the Kd in experiment [1] and in experiment [3] were 0.426 nM and 0.349 nM, respectively.

B12: ADI-14584 (antibody, V domains shown)
VH: QVQLVQSGAEVKKPGASVKVSCKASGFTFTNYGTSYGITWVRQAPGQGLEWMGWINTSNGNPNYAQKLQGRVTMTADTSTSTAYMELRSLISDDTAVYYCARGHRMVRGVVPTGYYGLDVWGQGTTVTVSS
VL: DIQLTQSPSSLSASVGDRVTITCRASQSISSYLNWYQQKPGKAPKLLIFAASNLQSGVPSRFSGSGSGTDFTLTISSLQPEDFATYYCQQSYITPWTFGQGTKVEIK
notes: also called Ab 113
Regarding B12, the dissociation constant Kd in experiment [3] worked out at 0.476 nM. Also, in experiment [2], the binding result is recorded as “no binding”.

B13: ADI-21048 (antibody, V domains shown)
VH: EVQLVESGAEVKKPGASVKVSCKASGYTFSSHAISWVRQAPGHGLEWMGWISVFNGNTNYAQKFQGRVTMTTDTSTSTAYMELRSLRSDDAAVYYCAREVIGVGEFYFDYWGQGTLVTVSS
VL: QSVLTQPPSVSVAPGQTARITCGGNNIGSKSVHWYQQKAGQAPVLVVYDDSDRPSGIPERFLGSNSGNTATLTISRVEAGDEADYYCQVWDSSGDFHVFGTGTKVTVL
Molecule B13 returned a Kd in experiment [1] of 0.111 nM.

B14: ADI-20994 (antibody, V domains shown)
VH: QVQLVQSGAEVKKPGASVKVSCKASGYTFSSNVIGWVRQAPGQGLEWMGWISTNNGNTKYGQKFQGRVTMTTDPSTSTAYMELRSLRSDDTAFYYCARESLGMGGFYFDYWGQGTLVTVSS
VL: QPVLTQPPSVSVAPGQTARITCGGDNIGSKSVHWYQQKPGQAPVLVVYDDSDRPSGIPERFSGSNSGNTASLTISRVEAGDEADYCCQVWDSGSDLWVFG
Take B14: the values for the dissociation constant (Kd) in experiment [1] and in experiment [3] were 0.0894 nM and 0.109 nM, respectively.

B15: ADI-21009 (antibody, V domains shown)
VH: QVQLVQSGAEMKTPGASVKVSCKASGYSFSNYGFTWVRQAPGQGLEWMGWISGYSAKTNYAQDLQGRVTMTIDTSTSTSYMELRSLRSDDTAVYYCARDPLGYFGSGTYRGGAFDFWGQGTTVTVSS
VL: QSALTQPASVSGSPGQSITLSCTGTNNDVGSYHLVSWYQQYPGKAPKLVIYEVTKRPSGVSNRFSGSKSGNTASLTISGLQPEDEADYYCCSYAGDRRIFGGGTKVTVL
notes: also called Ab 260
For B15, the Kd in experiment [1] is 4.88 nM; in experiment [3], 19.5 nM.

B16: ADI-21031 (antibody, V domains shown)
VH: EVQLVESGPGLVKPSQTLSLTCTVSGGSISNSNYFWSWIRQPAGKGLEWIGRVHSSGTTSYNPSLKSRITISVDASESQFSLNLTSVTAADTAIYYCARDSSDWGLGWYFDLWGRGTLVTVSS
VL: ETTLTQSPATLSLSPGERATLSCRASQSVTFYLAWYQHKPGQAPRLLIFDASKRATGIPARFSGSGSGTDFTLTISSLEPEDFALYYCQQRSDWPQTFGQGTKVDIK
Turning to B16, the Kd worked out at 1.07 nM in experiment [1] and 1.5 nM in experiment [3].

B17: ADI-14394 (antibody, V domains shown)
VH: EVQLLESGGGLVKPGGSLRLSCAASGFTFSSYSMNWVRQAPGKGLEWVSSISSSSSYIYYADSVKGRFTISRDNAKNSLYLQMNSLRAEDTAVYYCARGSEYYFDYWGQGTLVTVSS
VL: QSVLTQPPSVSGAPGQRVTISCTGSSSNIGAGYDVHWYQQLPGTAPKLLIYGNSNRPSGVPDRFSGSKSGTSASLAITGLQAEDEADYYCQSYDSSLSVVFGGGTKVTVL
notes: also called Ab 61
In turn, B17 displayed a Kd in experiment [1] of 11.5 nM. The binding result in experiment [2] was “no binding”.

B18: ADI-25577 (antibody, V domains shown)
VH: QVTLKESGGGLVKPGGSLRLSCAASGFTFSSYSMNWVRQAPGKGLEWVSSISSSSSYIYYADSVKGRFTISRDNAKNSLYLQMNSLRAEDTAVYYCARYSSSLGAFDIWGQGTMVTVSS
VL: B17 VL with V3A, V99D, G103T, V107L
notes: full-length IgG
In the case of B18, binding in experiment [4] was put at a Kd of 44.2 nM. The binding result in experiment [5] is “no binding”.

B19: ADI-14419 (antibody, V domains shown)
VH: EVQLVESGGGVVQPGGSLRLSCAASGFSFSDYGMHWVRQAPGKGLEWVSFIRYDASYKFYADSVKGRFTISRDNAKNTLYLQINSLRAEDTAVYYCAKEIYGSGSYYYYYYAIDVWGQGTTVTVSS
VL: EIVLTQSPGTLSLSPGERATLSCRASQSVSSSHLAWYQQKPGQAPRLLIYGASSRATGIPDRFSGSGSGTDFTLTISRLEPEDFAVYYCQQYFRSAWAFGQGTKVDIK
notes: also called Ab 85
With B19, the equilibrium dissociation constant (Kd) in experiment [1] came to 2.69 nM. Further, the binding result in experiment [2] is listed as “no binding”.

B20: ADI-20977 (antibody, V domains shown)
VH: EVQLVESGGGLVQPGGSLRLSCAASGFTFTNYAMSWVRQAPGKGLEWVSGISGSGGSTYYADSVKGRFTISRDNSKNTLYLQMNSLRAEDTAVYYCAKDQGYAVVVADATRNLPPRRYGMDVWGQGTTVTVSS
VL: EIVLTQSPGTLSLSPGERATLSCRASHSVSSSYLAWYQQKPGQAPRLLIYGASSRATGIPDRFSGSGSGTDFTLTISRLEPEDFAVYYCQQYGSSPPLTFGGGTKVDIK
notes: also called Ab 230
In experiment [1], B20 showed a dissociation constant Kd of 0.151 nM. In experiment [2], the binding result is given as “no binding”.
